The record followed here is patent US6046165.

Data set [1] has as its target MAD^N (B-Pv) (Drosophila melanogaster) (UniProt P42003). As to the kind of experiment: EMSA.
Data set [2] concerns the target MAD full length (B-H) (Drosophila melanogaster) (UniProt P42003). The data set can be described thus: EMSA. The settings on record: approximately 100-fold lower than MAD^N.

MAD^N (B-Pv) (Drosophila melanogaster), sequence (P42003 1-241): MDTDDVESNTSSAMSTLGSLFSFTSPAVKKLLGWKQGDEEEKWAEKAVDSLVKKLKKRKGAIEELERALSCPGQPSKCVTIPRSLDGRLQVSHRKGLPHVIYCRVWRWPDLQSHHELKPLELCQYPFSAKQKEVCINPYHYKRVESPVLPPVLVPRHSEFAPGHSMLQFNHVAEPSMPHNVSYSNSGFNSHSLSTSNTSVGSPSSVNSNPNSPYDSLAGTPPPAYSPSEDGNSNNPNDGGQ
MAD full length (B-H) (Drosophila melanogaster), sequence (P42003 whole entry): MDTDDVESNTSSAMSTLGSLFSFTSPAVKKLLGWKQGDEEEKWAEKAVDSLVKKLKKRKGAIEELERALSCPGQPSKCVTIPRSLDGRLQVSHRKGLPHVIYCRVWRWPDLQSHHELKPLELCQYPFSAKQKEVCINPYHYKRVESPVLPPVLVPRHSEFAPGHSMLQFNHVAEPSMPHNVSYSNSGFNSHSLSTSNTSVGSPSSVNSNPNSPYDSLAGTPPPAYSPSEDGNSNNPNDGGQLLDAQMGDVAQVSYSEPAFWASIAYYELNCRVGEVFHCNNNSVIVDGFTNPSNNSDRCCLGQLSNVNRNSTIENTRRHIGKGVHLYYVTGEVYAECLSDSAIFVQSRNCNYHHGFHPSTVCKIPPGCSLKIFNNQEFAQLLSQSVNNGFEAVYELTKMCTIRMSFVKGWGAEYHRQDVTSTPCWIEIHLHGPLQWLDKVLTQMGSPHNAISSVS

With “ATTC (double strand) [MAD binding site (FIG. 7B)]”, the binding signal in data set [1] (wild-type reference) is 1 reference.

Take ATTC (double strand) [Vg 20 bp]: in data set [2], the binding signal (fraction of MAD^N) is 0.01.

In turn, “ATTC (double strand) [MAD binding site GCT to CGC]” registered a binding signal in data set [1] (increased affinity vs wild-type site, MBP fusion) of 6 fold vs n15.
